Results: article PMC9691347, “C9orf72 regulates the unfolded protein response and stress granule formation by interacting with eIF2α” (Theranostics, 2022)

Target: T1, MBP-tagged eIF2α (MBP-eIF2α) (human, UniProt P05198 1-315)
T1 construct: full-length human EIF2S1 cDNA in pMAL-c2x; source: Rosetta E. coli, purified (dextrin beads 6FF)
Assay: pull-down; 0.5 µg purified GST or GST-tagged proteins on glutathione magnetic beads, incubated with 0.5 µg purified MBP or MBP-eIF2α for 4 h at 4°C; six washes with 400 mM NaCl, 0.5% Triton X-100; western blot
Conditions: both partners purified

T1 sequence (P05198 whole entry): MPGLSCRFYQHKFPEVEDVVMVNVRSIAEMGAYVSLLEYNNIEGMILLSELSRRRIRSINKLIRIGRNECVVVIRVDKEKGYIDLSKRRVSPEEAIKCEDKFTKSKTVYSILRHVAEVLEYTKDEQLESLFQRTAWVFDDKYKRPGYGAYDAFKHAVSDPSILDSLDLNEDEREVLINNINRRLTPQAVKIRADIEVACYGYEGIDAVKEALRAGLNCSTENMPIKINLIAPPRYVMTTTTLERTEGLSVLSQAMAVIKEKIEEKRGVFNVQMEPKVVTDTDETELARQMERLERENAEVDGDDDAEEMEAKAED

binding result: binds
B1: GST-tagged C9orf72 short protein isoform (GST-C9S) (natural protein, human, UniProt Q96LT7-2 1-222, looked up)
chain: MSTLCPPPSPAVAKTEIALSGKSPLLAATFAYWDNILGPRVRHIWAPKTEQVLLSDGEITFLANHTLNGEILRNAESGAIDVKFFVLSEKGVIIVSLIFDGNWNGDRSTYGLSIILPQTELSFYLPLHRVCVDRLTHIIRKGRIWMHKERQENVQKIILEGTERMEDQGQSIIPMLTGEVIPVMELLSSMKSHSVPEEIDIADTVLNDDDIGDSCHEGFLLK
notes: human C9orf72 short protein isoform, 222 aa, encoded by exons 2-5; pGEX-6P-1 vector; source: Rosetta E. coli, purified (glutathione magnetic beads)
